Molecular target: COVID-19 virus main protease (M^pro) (COVID-19 virus)
Experiment: crystal structure

## COVID-19 virus main protease (M^pro) (enzyme)
  stoichiometry N: 2

Source: publication doi:10.1101/2020.02.26.964882
